Experiment [1] addresses KslB, bacterial Pictet–Spenglerase from Kitasatospora setae (Kitasatospora setae). As to the kind of experiment: SEC.
Experiment [2] shares this target. Nature of the experiment: crystal structure.

With “KslB, bacterial Pictet–Spenglerase from Kitasatospora setae (enzyme)”, the stoichiometry N in experiment [1] and in experiment [2] was 2 in each case.

Source of the values: PMC12012969.
